The results in this text go back to patent US20240270839A1.

The labels stand for the following.
B1: 35B4 (antibody, V domains shown)
VH: EAKLVESGGDFMQPGGSLKLSCAASGFTLSSYALSWVRQTPEKRLEWVAYISNLGGSTFYPDTVKGRFTISRDNARNTLFLQMSSLQSEDTAIYYCATHLYNYDAFASWGQGTLVTVSA
VL: QIVLSQSPAILSASPGEKVTMTCRASSSVNYIHWYQQKPGSSPKAWIYATSNLASGVPTRFSGSGSGTSYSLTIDRVEAEDAATYYCQQWNSNPLTFGAGTKLELK
B2: 33G12 (antibody, V domains shown)
VH: EVKLVESGGGLVQPGGSLKLSCAASGFTFSRYAMSWVRQTPEKRLEWVAYISIGGTTYYPDTIKGRFTISRDNAKNTLYLQMSSLKSEDTAMYYCTRHYYGHDVMDYWGQGTSVTVSS
VL: B1 VL with A9T, S26T, N30S, I32M, Y35F, A45P, T59A, D75S, N91S, S92R
B3: 22E12 (antibody, V domains shown)
VH: QVQLQQPGTELVKTGTSVKLSCKASGYTFTNWVHWVIQRPGQGLEWIGEINPTNGRSNYNEKFKKKATLTLDRSSTTAYMQLSSLTSEDSAVYFCAGIYYGNSFAHWGQGTLVTVSA
VL: DIVMTQSPSSLTVTAGEKVTLSCKSSQSLLNSGNQKNYLTWYQQKPGQPPKLLIYWSSTRESGVPDRFTGSGSGTDFTLTISSVQAEDLAVYHCQNNYYYPLTFGAGTKLELK
B4: 97A9 (antibody, V domains shown)
VH: QVQLQQSGPELVKPGASMKLSCKASGYSFTRNDINWVKQRPGQGLEWIGLSYPRDGTTQYNGKFKGKATLTVDTSSSTAYMELRSLTSEDSAVYFCARGYYGNSFAYWGQGTLVTVSA
VL: B3 VL with L21M, S57A, D76Y, H93F, N97D, Y100F, L102Y, A106G, L112I
B5: hu35B4.H1L2 (antibody, V domains shown)
VH: EVQLLESGGGLVQPGGSLRLSCAASGFTLSSYALSWVRQAPGKGLEWVSYISNLGGSTFYPDTVKGRFTISRDNSKNTLYLQMNSLRAEDTAVYYCAKHLYNYDAFASWGQGTLVTVSS
VL: DIQLTQSPSFLSASVGDRVTITCRASSSVNYIHWYQQKPGKAPKALIYATSNLASGVPSRFSGSGSGTEYTLTISSLQPEDFATYYCQQWNSNPLTFGQGTKLEIK
B6: 99H8 (antibody, V domains shown)
VH: QVQLQQSGPELVKPGASVKLSCKASGYSFTNFDINWVKQRPGQGLQWIGRLYPRDGTTTYNEKFKGKASLTVDTSSTTSYMDLHSLTSEDSAVYFCVRGNYGNSFAYWGQGTLVTVSA
VL: DIVMTQSPSSLTVTAREKVIMNCKSSQSLFNSGNQKNYLTWYQQKPGQSPKLLIYWASTRQSGVPDRFTGSGSGTDFTLTISTVQAEDLAVYFCQNGFSFPYTFGGGTKLEMN
B7: ch99H8 (antibody, V domains shown)
VH: B6 VH
VL: B6 VL
B8: ch97A9 (antibody, V domains shown)
VH: B4 VH
VL: B3 VL with L21M, S57A, D76Y, H93F, N97D, Y100F, L102Y, A106G, L112I
B9: hu22E12.H1L2 (antibody, V domains shown)
VH: QVQLVQSGAEVKKPGASVKVSCKASGYTFTNWVHWVRQAPGQGLEWMGEINPTNARSNYNEKFKKRVTMTRDTSTSTVYMELSSLRSEDTAVYYCARIYYGNSFAHWGQGTLVTVSS
VL: DIVMTQSPDSLAVSLGERATINCKSSQSLLNAGNQKNYLTWYQQKPGQPPKLLIYWSSTRESGVPDRFSGSGSGTDFTLTISSLQAEDVAVYHCQNNYYYPLTFGGGTKLEIK

Substitutions are numbered along the chain they refer to.

One experiment has as its target biotin labeled hCLDN18.2 (human). Briefly: competitive ELISA: excess antibody plus biotin labeled hCLDN18.2 on coated IMAB362; competitor IMAB362. Background: ELISA stands for enzyme-linked immunosorbent assay.
As for B1, the Compete with IMAB362 (%) amounted to 81%.
Take B2: the Compete with IMAB362 (%) is 87%.
Still for that read-out and setting: the result for B3 reads 49%; that for B4, 92%.

A further experiment deals with recombinant 6xHis tagged human CLDN18.2 (human). Briefly: SPR (Biacore); same values as Table 30, where the antibody is hu35B4.H1L2.
For orientation: Kd means the concentration at which binding is half-saturated. Take B5: the Kd amounted to 1.57 nM.

For another experiment, the target named is human CLDN18.2 as used in the Octet assay (human). Briefly: Octet (BLI); format not described.
Regarding B1, the dissociation constant (Kd) was determined as 3.3 nM.
Same read-out and setting: the result for B2 reads 6.2 nM; that for B6, 2 nM; that for B3, < 0.001 nM.
On the same count and under the same terms, the result for B4 reads 2.2 nM.

A further experiment deals with recombinant 6xHis tagged human CLDN18.2 (human). Briefly: SPR (Biacore T200), His tagged CLDN18.2 amine-coupled on CM5, antibody as analyte, 1:1 fit.
The term koff denotes a measure of how fast the partners let go of each other. The term kon denotes the rate constant with which the complex forms. As for B5, the Kd was determined as 1.57 nM, the koff was 0.00035 s⁻¹ and the kon stood at 222000 M⁻¹ s⁻¹.
The corresponding values for B7 are 1.75 nM, 0.000355 s⁻¹ and 203000 M⁻¹ s⁻¹.
The corresponding values for B8 are 1.15 nM, 0.000489 s⁻¹ and 425000 M⁻¹ s⁻¹.
In the same order, the values of B9 are 0.26 nM, 0.000202 s⁻¹ and 778000 M⁻¹ s⁻¹.

The target is the same in another experiment. Briefly: SPR (Biacore); same values as Table 30, where the antibody is ch99H8. In general terms: In SPR one partner is held on a chip, and binding of the other changes the refractive index at the surface.
Regarding B7, the Kd worked out at 1.75 nM.

For a further experiment the target is unchanged. Briefly: SPR (Biacore); same values as Table 30, where the antibody is ch97A9.
In the case of B8, the Kd worked out at 1.15 nM.

In another experiment the target is mouse CLDN18.2 (mCLDN18.2), expressed on HEK293 cells (mouse) (UniProt P56857). Briefly: FACS, HEK293/mCLDN18.2 cells. Background: Flow cytometry measures light scatter and fluorescence of single cells or particles in a stream.
What is called EC50 is the concentration giving half of the maximal effect. Lower therefore signals a more potent agent. As for B1, the half-maximal effective concentration (EC50) was 1.9 nM.
The same measure, in the same setting: the result for B2 reads 1.7 nM.
B6 showed an EC50 of 3.5 nM.
The same measure, in the same setting: for B3 the value was 0.9 nM; for B4, 1.4 nM.

The target in the next experiment is recombinant 6xHis tagged human CLDN18.2 (human). Briefly: SPR (Biacore); same values as Table 30, where the antibody is hu22E12.H1L2.
In the case of B9, the Kd came out at 0.26 nM.
